From a protein production outcome set (Wang et al. 2014)

Experiment: label from the status in PepcDB records
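Further: failed if final PepcDB status was selected cloned or expressed and not failed if soluble or beyond.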

Sequence	protein production
MLKANVFCAGPVEALILDWAGTTIDFGSLAPVYAFMELFKQEGIEVTQAEAREPMGTEKSEHIRRMLGNSRIANAWLSIKGQASNEEDIKRLYDLFAPIQTRIVAQRSQLIPGWKEVFDKLIAQGIKVGGNTGYGPGMMAPALIAAKEQGYTPASTVFATDVVRGRPFPDMALKVALELEVGHVNGCIKVDDTLPGIEEGLRAGMWTVGVSCSGNEVGLDREDWQALSSDEQQSYRQHAEQRLFNAGAHYVIDSVADLETVITDVNRRLARGEKP	not failed
IGGHVGYGVAKSYRGKGYATILLEKALDELKTLNVEVVLMTCNPLNFASQTVMKKCGGYQIESYIKKNGKPVHRYHIPNT	failed
PRPDKCPCEVYHLMKNCWETEASFRPTFENLIPILKTVHEKYQGQAPSVFSVC	failed
MGHHHHHHSHPPRDLDSKACISIGNQNFEVKADDLEPIMELGRGAYGVVEKMRHVPSGQIMAVKRIRATVNSQEQKRLLMDLDISMRTVDCPFTVTFYGALFREGDVWICMELMDTSLDKFYKQVIDKGQTIPEDILGKIAVSIVKALEHLHSKLSVIHRDVKPSNVLINALGQVKMCDFGISGYLVDSVAKTIDAGCKPYMAPERINPELNQKGYSVKSDIWSLGITMIELAILRFPYDSWGTPFQQLKQVVEEPSPQLPADKFSAEFVDFTSQCLKKNSKERPTYPELMQHPFFTLHESKGTDVASFVKLILGD	not failed
SADEAPSSADEAPSSAVEQIVAPVDFSDLTEVALRHVAQIAPLYDVPVTLVHVVEDPTMPSVYEVNASAVRARAAEQRAEEALQSLGAPIEETGVSVSYLVHRGQTTSTVVEATGHRDTLTVMGTKGLSGLRRVMLGSVTEAVIRASDGPVLAVPASAQEASPANE	failed
MARTRSADYENIRDTIIERAAAMFARQGYSETSIGDIARACECSKSRLYHYFDSKEAVLRDMLTTHVDSLLERCRQVLYGSNEPKTRFLQIVKLFLEIYATSRDRHVVMLTCLDALPEDQRKALIAKQRELIAYVRDALLQLRPDMAANRTLAHVDTMLFFGMINWTYTWYKADGSVSPDALAERTVQLFLDGYLNLLSA	not failed
MRIHRLDIEAFGPFATPQHIDFDHLSAQGLFLLNGATGAGKTSILDAICFALYGSVPGARQEGKRLRSDHAAPGAEPRVVCEFSARGRRFEVTRSPAWDRPSARGRNGFTTQQAKTLLRERVAGSWEEKSSRNDEVGAELSDVLGMDREQFTRVVMLPQGDFAAFLRSKANDRLELLQKLFGTQRFEAVERQLVHQAAEAARAVQENASELKLLLDRVASEQDQLGLPAADTSAAGTEPGQEPEAWLAGVEAEVEAEWKRRQNEAAEAESLSSRLMEHFQEAQEKSQRHGRLGAAMQRRVLLELAAPRALENKEMLGKHRRAAVLSGQLEAVDSAARKLHTASARAAGLREKLDAAGLDAAKPTIALETVKASCAVLEARLPEEQRLEGITVRLAARRGELAEHLSAAEAAATVVDQLREEVSAVELEIQPLEPLADQLAEREREATAAAELVGIVARHATAASELDVITGKHLHARSASQDLRQKWLDVRELRLANAAGELAAALESGKPCAVCGSEEHPNPAQAVRTALSLAQEEEEARERFEASERALGLLAEQVSSAAQVLAGLVAQGGSADAAAAESTLADARAAALAARTAEASLEKLRVRHEALIKRIVLAQEEHDASVGAAAQASAAVHVLQEQCVALETDLAGLRGDFSSLRDRLEALEAERGLLQAAVDADRELERAEQARQDAAASLDKALSESGFASADDARREILSPADVVGLEKDLADFDAESSRLDELFGSEDLVLAAKEASIGEHPLGEAELAESKLHAANAADDARAKALSAGLAGKSAAAVARFRTEYQSLAQAGREPRNRAQMLAELADTVRGSGDNSYRMSLNAYVLAARLEQVATAASERLVAMSDGRYTLQHTDAKAARGAKSGLGLEVVDEWTGQRRDTSTLSGGESFMASLSLALGLADVVQQEAGGVDIETLFVDEGFGSLDDQALEQVMDALEGLRDGGRVVGLVSHVGEMKQRITNQLQVVKGRHGSSVRIAEAGPV	failed
MVQIIFDSKTGNVQRFVNKTGFQQIRKVDEMDHVDTPFVLVTYTTNFGQVPASTQSFLEKYAHLLLGVAASGNKVWGDNFAKSADTISRQYQVPILHKFELSGTSKDVELFTQEVERVVTKSSAKMDPVK	not failed
MNGVFAINFFVMALMLALYISESFGAIILLFFYKDGSKKVTPYVVPIWELTGTFIAFWVVTSDFAYPSILVPAAFIYAVPLLILLIAFIGRNAFIIFGEFIKKGFIDEKAMYKIFSIFECIFCLVFVIFASSVVTGGGVILSKLAFNVGKWATTPGDVLFVVGTVIFIFGLSFIFYGLEKYKLHSIVLTYIGIILAVVAFVQIHLSISTVPLSPVLAIPILIGILAPILFYIDSTRKIVENKIFFLALLVISVYPFYSLVYPKFFGGTLPVSAFLTNSPMATAYFYITLGGGILLIAMLAYMVYVANGFNKMVAEKA	failed
MYLQCYINEKGEKVYTTKKESPLGLATESAHPARFSPDDKYSKQRVLLKKRFGLLPTQNAPLQY	failed
MRMQQDVQDVKLIAVLNLLNQLSNKNSLEEYLNGVIDFLSGWTGCENIGIRVLREAGLAPYVVHRGFDKDFIASESCISVEGDECVCLRVLKQQFKSEDQDHISAAGTYYAPNFYRYVEELREDQLLNFRGLCAHKQFKSLAVIPLLHQGKVVGAIHIADIKDGVFSEEDIHFIETIRPLVAEAIYRHNLEKALESTVLRYEAEEMVIRKLKFEERLASISARFNQQEDFKAAAEESLKDILKLFKAEEVCLYLGGNLKEYVSVREHGQQACGCVIPSDTFAELRGRWKQGEILCQKPALQDEFKEIEYFAQEVFSKDSILTIPLNFKGSLLGVLIIVNISSGGLPFKEILNPLKLVTETFANAVEQGRIQYQLMWSENRYRTIFNHSGSAFLIVDENLKILLSNPQAERLLDLPSAKIDNIAYLTDFLPDTEVGRLKEYNRRRLQRDPQIPRQYEMKYKDSRGNLKDVIVSAEVIPQTTQTVLSIIDITEWKKTEAELQFLNLHDRLTGLYNRVYFEQELRRYETDPGQEVGLIMADVNGLKLINTTFGSEAGDQVLVTTARLLNECFEEHLVARIGGDEFAVLIEKDKNVDLEQACQLFRRNVEKYNKDHDGYPLDISLGYACSGAGGVNMSELLRKADDAMGREKLHSNNSTRNSQVQILSKALECRDFITEGHAERVQNLIISTGQLAGLSEQRLSDLKLFAQFHDIGKVGIPDQILFKKGRLTADEWEIMKQHCEIGYRIAQSTPDIYPIADWILKHHENWDGSGYPLGIAGEEIPIECRILAVADTFDAMTNDRPYRKAQSTQAAIEEILRCAGTQFDPHIVELFVKTV	failed
MSIYKDINIASAKPSLKERKNIKHYALDHLNIDEKNNAPLFKTLLEDAMRVSSKEILLIVGGSSFYLKSILEGLSRMPKLSGEEVVKIEREIATLSNPYIFLKSIDPNMAFKIHPNDTYRTHKALEIFYATCTPPSEYFKANPKKPFEHAISLFALSIEKSALHNNIKRRTKNMLHSGLVEEIKALYTQYPKDSQPFKAIGVKESVLFLEKRLTLKELEEAITSNTMKLAKRQNTFNKTQFNNLYVGSAEEVRHAILKHSKSGIKG	failed
NTKQLRFEDVVNQSSPKNCTVYCGGIASGLTDQLMRQTFSPFGQIMEIRVFPEKGYSFVRFSTHESAAHAIVSVNGTTIEGHVVKCYWGKESPDMT	not failed
MTHVNIMAGGPQACLPAAWEQLPGVWIGVDRGTLRLVRAGIHPELAVGDFDSLTLEELRLVRGHVQKLQQVPSEKDDTDTELAVKAALQASSSGDVTLVGGTGGRLDHFLSNLFLPLQPRFLADVERLHLFDVQNWVDYYSPGEHEIKPLPGYRYVAVVNLTPVADLTIVGAKYPLKPWRAGYPYAWASNEFLGKQPFTVSWTTGQVAIIYSRDRRGQKLDNLEHHHHHH	not failed
EETRTEVEKKNYMNNAEEAKDVLLGVYRTNTLDAMYGYYLSILFNLGTDISQVEGSGNENFRIIPTNSFPTTQSEVQQTWAALYTGIYRANDFLERISNKIGSYTTTDKKLATLYIAEARALRGMFYFELVRRFGNVVLMTSTQMSNQNPATYVQSAPEKVYEYIEDDLLYACDILPYATDDQYRESNDYRFSKGAALGLLTKVYATWAGYPVKDESKWEAAAKTARILVESGKHGLLKDYEQLWKNTCNGTWDPTESLIEISFYSPTVSGNSDPVGRIGKWNGVKTTAIAGVRGSCAANVKVVHTFVLDWREDVSDIRRDLSIANYQYTDTKKSLWVAGASDTDESAAEKDADPTKAQKNKQNYTPAKWDIQKYVTTNSFINNDKSNVNWYFLRYADVLLLYAEALNEWKHGPDAEAYNAINAVRRRGYGNPSNTSACDLPQGLDETSFREAVRKERSYELSFEGHRRQDLIRWGIYYKTVQATAKELGYWWEGTGSPNYSVATYTEEGKHELFPIPQRDMDLCIQFNQNPKW	not failed
MLEAEVVALKDLIEVAGAVVSTLDLDTVLRHILTSAMRFAETPAGSIALYDGYRNDLTLHAHEGLTPEFVKTERWSVQPGGLTEQVLTRGEILFVNDTADTSFFHNPTALNEGIRSLICVPLMMQNRIVGILYLDDFVPRDFDKERMKLLSVLASFAAMAIDNAQLHARTRLMAITDSLTGLYNHRYFQQIFSRELNRAKRYEKPLAIIMLDVDDFKRFNDTYGHPHGDKVLAAMGDFLGEALRSSDFAFRYGGEEFIVLLPETEFDSALQVAERLRELVERRSLDVLKGLAPQGVTVSVGVASFPRDGESRGDMLKRVDDLLYRAKEFGKNRVYSRREDEP	failed
MSLIIQVSPAGSMDLLSQLEVERLKKTASSDLYQLYRNCSLAVLNSGSHTDNSKELLDKYKNFDITVMRRERGIKLELANPPEHAFVDGQIIKGIQEHLFSVLRDIVYVNMHLADSQRLNLTNATHITNLVFGILRNAGALIPGATPNLVVCWGGHSINEVEYQYTREVGHELGLRELNICTGCGPGAMEGPMKGAAVGHAKQRYSEYRYLGLTEPSIIAAEPPNPIVNELVIMPDIEKRLEAFVRMAHGIIIFPGGPGTAEELLYILGIMMHPENADQPMPIVLTGPKQSEAYFRSLDKFITDTLGEAARKHYSIAIDNPAEAARIMSNAMPLVRQHRKDKEDAYSFNWSLKIEPEFQLPFEPNHESMANLDLHLNQRPEVLAANLRRAFSGVVAGNVKAEGIREIERHGPFEMHGDPVLMKKMDQLLNDFVAQNRMKLPGGSAYEPCYKIVTEGHHHHHH	not failed
MSEIIIQNLISPVVLFFLLGIIAATFKSDLQFPKGLTEALSMYLLIAIGIKGGIELSHYHLEAVIGPVIGTIFLGMLIPVIVLMITRLFMKVDLKNSIALAATYGSTSIVTYGAAVSFLEKSGTTYEGFMNAMVVLKESPAILVSLLLLSIIERQQAVPTTLSSKRVGIVSGHQGLIDKEVLKESFFGKSIILLLGSLIIGLVVGERAIPMVQPLFIDLYQSVLILFLLYMGLTVGERLPEVKKHGIKLILFGVLTPILLGALGVLVGTLAGLSVGGATLMGILAGSASYIAAPAALRTSVPEANPSIYLGLSLGVTFPFNLIFGIPLYFEFAKLLH	failed
MSRPRLELGTWGKITRTEVAEGKHRARARFRDFTGKTRQVEAYGASGAKAERQLLANLRSRVESAGDTISGNTTVSSLGKIWTGNLGKSDEHTEQTIERYESIVEKIIGPALGEYLIMEATVSRVDGFLRALADKTPGRAKTTKSVLKSMFDLAVRHDALRTNPVREVRLPTKRKKPVQALTIDEVGTLREGLRKWQAADGVKGPTRSTELLDVVDLMLGTGMRIGEVLALRWSDVDLGEHPRLTVSGTLVPIKEKGLRRQAHTKTASGFRVLTLPAFVVEVLLRRSVESIPTETNAVFPSGAGTWKWPNNYRRALRAALKEMENTSGITPHVFRKSVATLIDAEATLEAAAAVLGHSGTGVTSAHYVAKAATAPDMSSILDQFGGNRIQKDG	failed
ELHPRTGRLVSLSACGRTARRQQPGQEFNHGLVLSREPLRDGRVFTVRIDRKVNSWSGSIEIGVTALDPSVLDFPSSATGLKGGSWVVSGCSVLRDGRSVLEEYGQDLDQLGEGDRVGVERTVAGELRLWVNGRDCGVAATGLPPRVWAVVDLYGKCTQITVL	not failed
